Source: article PMC4390494 (Journal of immunology (Baltimore, Md. : 1950), 2015)

Target: the molecule itself
Assay: pull-down

B1: HkRP3 (1) (aa 1-724), GST- or MBP-fused (domain or fragment, UniProt A6NC98-1 1-724, looked up)
chain: MEGGKGPRLRDFLSGSLATWALGLAGLVGEAEDSEGEEEEEEEEPPLWLEKRFLRLSDGALLLRVLGIIAPSSRGGPRMLRGLDGPAAWRVWNLNHLWGRLRDFYQEELQLLILSPPPDLQTLGFDPLSEEAVEQLEGVLRLLLGASVQCEHRELFIRHIQGLSLEVQSELAAAIQEVTQPGAGVVLALSGPDPGELAPAELEMLSRSLMGTLSKLARERDLGAQRLAELLLEREPLCLRPEAPSRAPAEGPSHHLALQLANAKAQLRRLRQELEEKAELLLDSQAEVQGLEAEIRRLRQEAQALSGQAKRAELYREEAEALRERAGRLPRLQEELRRCRERLQAAEAYKSQLEEERVLSGVLEASKALLEEQLEAARERCARLHETQRENLLLRTRLGEAHAELDSLRHQVDQLAEENVELELELQRSLEPPPGSPGEAPLAGAAPSLQDEVREAEAGRLRTLERENRELRGLLQVLQGQPGGQHPLLEAPREDPVLPVLEEAPQTPVAFDHSPQGLVQKARDGGPQALDLAPPALDSVLEASAECPQAPDSDPQEAESPLQAAAMDPQASDWSPQESGSPVETQESPEKAGRRSSLQSPASVAPPQGPGTKIQAPQLLGGETEGREAPQGELVPEAWGLRQEGPEHKPGPSEPSSVQLEEQEGPNQGLDLATGQAEAREHDQRLEGTVRDPAWQKPQQKSEGALEVQVWEGPIPGESLASGV
binding result: binds
